Numbering of substitutions follows the chain as printed. Names and notes keep the numbering of the source.
B1: GLP-1-Fn7-COL18NC1 (ligand)
chain: HAEGTFTSDVSSYLEGQAAKEFIAWLVKGRGGGGSGGGGTPLSPPTNLHLEANPDTGVLTVSWERSTTPDITGYRITTTPTNGQQGNSLEEVVHADQSSCTFDNLSPGLEYNVSVYTVKDDKESVPISDTIIPAGGGSGGGASSGVRLWATRQAMLGQVHEVPEGWLIFVAEQEELYVRVQNGFRKVQLEARTPLPRG
B2: GLP-1(A8G/G22E)-Fn8-p246-COL18NC1 (ligand)
chain: HGEGTFTSDVSSYLEEQAAKEFIAWLVKGRGSGGGSGGGSGGGSGGGSGSGGAVPPPTDLRFTNIGPDTMRVTWAPPPSIDLTNFLVRYSPVKNEEDVAELSISPSDNAVVLTNLLPGTEYVVSVSSVYEQHESTPLRGRQKTGGGGSGGGSGSGSESGSGGGSTSSGTGSETESPGSGSESGSGPSSAGSGSGSESGSGSGSSGPGSTGGSGSESGSGPGSSGTGGTATGSGSESGSGPGSSGPGSTGSGSGSESGSGSGSSGTGSTGGSGSESGSGPGSPRPGSTGTGSGSESGSGPGSSERGSAGGSGSESGSGTSESSASGSTGGSGSESGSGSESGSGSGSESGSGPESPGSGGSGSESGSGTSGSTGSGSESGSGGGSGGGSGGGASSGVRLWATRQAMLGQVHEVPEGWLIFVAEQEELYVRVQNGFRKVQLEARTPLPRG
B3: GLP-1(A8V/G22E)-Fn8-p246-COL18NC1 (ligand)
chain: B2 chain with G2V
B4: GLP-1(A8G/G22E/R36S)-Fn8-p246-COL18NC1 (ligand)
chain: B2 chain with R30S
B5: GLP-1(A8S/G22E)-Fn8-p246-COL18NC1 (ligand)
chain: B2 chain with G2S
B6: GLP-1(A8G/G22E/R36G)-Fn8-p246-COL18NC1 (ligand)
chain: B2 chain with R30G
B7: GLP-1(A8G/G22E/R36G)-TNCfn3-p246-COL18NC1 (ligand)
chain: HGEGTFTSDVSSYLEEQAAKEFIAWLVKGGGSGGGSGGGSGGGSGGGSGSGGRLDAPSQIEVKDVTDTTALITWFKPLAEIDGIELTYGIKDVPGDRTTIDLTEDENQYSIGNLKPDTEYEVSLISRRGDMSSNPAKETFTTGGGGSGGGSGSGSESGSGGGSTSSGTGSETESPGSGSESGSGPSSAGSGSGSESGSGSGSSGPGSTGGSGSESGSGPGSSGTGGTATGSGSESGSGPGSSGPGSTGSGSGSESGSGSGSSGTGSTGGSGSESGSGPGSPRPGSTGTGSGSESGSGPGSSERGSAGGSGSESGSGTSESSASGSTGGSGSESGSGSESGSGSGSESGSGPESPGSGGSGSESGSGTSGSTGSGSESGSGGGSGGGSGGGASSGVRLWATRQAMLGQVHEVPEGWLIFVAEQEELYVRVQNGFRKVQLEARTPLPRG
B8: GLP-1(A8G/G22E/R36G)-Fn8-p246-COL15NC1 (ligand)
chain: HGEGTFTSDVSSYLEEQAAKEFIAWLVKGGGSGGGSGGGSGGGSGGGSGSGGAVPPPTDLRFTNIGPDTMRVTWAPPPSIDLTNFLVRYSPVKNEEDVAELSISPSDNAVVLTNLLPGTEYVVSVSSVYEQHESTPLRGRQKTGGGGSGGGSGSGSESGSGGGSTSSGTGSETESPGSGSESGSGPSSAGSGSGSESGSGSGSSGPGSTGGSGSESGSGPGSSGTGGTATGSGSESGSGPGSSGPGSTGSGSGSESGSGSGSSGTGSTGGSGSESGSGPGSPRPGSTGTGSGSESGSGPGSSERGSAGGSGSESGSGTSESSASGSTGGSGSESGSGSESGSGSGSESGSGPESPGSGGSGSESGSGTSGSTGSGSESGSGGGSGGGSGGNLVTAFSNMDDMLQKAHLVIEGTFIYLRDSTEFFIRVRDGWKKLQLGELIPIPA

Target: human GLP-1 receptor (GLP-1R) (human, UniProt P43220 24-463)
Test: cell-based or functional assay

Binder	EC50 (nM) measured by cAMP assay
B1	2.2 nM
B2	0.5 nM
B3	0.5 nM
B4	0.4 nM
B5	0.6 nM
B6	0.4 nM
B7	0.5 nM
B8	0.5 nM
